These are literature values, as cited in article PMC9638026.

This data set deals with TIRR (Homo sapiens) (UniProt Q9BRJ7). The settings on record: cited from earlier work.
Chain of TIRR (Homo sapiens) (Q9BRJ7 whole entry): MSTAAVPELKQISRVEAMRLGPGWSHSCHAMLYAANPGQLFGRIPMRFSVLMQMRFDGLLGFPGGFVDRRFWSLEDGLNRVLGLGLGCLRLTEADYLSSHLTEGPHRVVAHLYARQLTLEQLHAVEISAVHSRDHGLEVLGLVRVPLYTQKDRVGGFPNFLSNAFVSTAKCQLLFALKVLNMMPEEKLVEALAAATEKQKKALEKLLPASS

Chain of 53BP1 (Q12888 whole entry): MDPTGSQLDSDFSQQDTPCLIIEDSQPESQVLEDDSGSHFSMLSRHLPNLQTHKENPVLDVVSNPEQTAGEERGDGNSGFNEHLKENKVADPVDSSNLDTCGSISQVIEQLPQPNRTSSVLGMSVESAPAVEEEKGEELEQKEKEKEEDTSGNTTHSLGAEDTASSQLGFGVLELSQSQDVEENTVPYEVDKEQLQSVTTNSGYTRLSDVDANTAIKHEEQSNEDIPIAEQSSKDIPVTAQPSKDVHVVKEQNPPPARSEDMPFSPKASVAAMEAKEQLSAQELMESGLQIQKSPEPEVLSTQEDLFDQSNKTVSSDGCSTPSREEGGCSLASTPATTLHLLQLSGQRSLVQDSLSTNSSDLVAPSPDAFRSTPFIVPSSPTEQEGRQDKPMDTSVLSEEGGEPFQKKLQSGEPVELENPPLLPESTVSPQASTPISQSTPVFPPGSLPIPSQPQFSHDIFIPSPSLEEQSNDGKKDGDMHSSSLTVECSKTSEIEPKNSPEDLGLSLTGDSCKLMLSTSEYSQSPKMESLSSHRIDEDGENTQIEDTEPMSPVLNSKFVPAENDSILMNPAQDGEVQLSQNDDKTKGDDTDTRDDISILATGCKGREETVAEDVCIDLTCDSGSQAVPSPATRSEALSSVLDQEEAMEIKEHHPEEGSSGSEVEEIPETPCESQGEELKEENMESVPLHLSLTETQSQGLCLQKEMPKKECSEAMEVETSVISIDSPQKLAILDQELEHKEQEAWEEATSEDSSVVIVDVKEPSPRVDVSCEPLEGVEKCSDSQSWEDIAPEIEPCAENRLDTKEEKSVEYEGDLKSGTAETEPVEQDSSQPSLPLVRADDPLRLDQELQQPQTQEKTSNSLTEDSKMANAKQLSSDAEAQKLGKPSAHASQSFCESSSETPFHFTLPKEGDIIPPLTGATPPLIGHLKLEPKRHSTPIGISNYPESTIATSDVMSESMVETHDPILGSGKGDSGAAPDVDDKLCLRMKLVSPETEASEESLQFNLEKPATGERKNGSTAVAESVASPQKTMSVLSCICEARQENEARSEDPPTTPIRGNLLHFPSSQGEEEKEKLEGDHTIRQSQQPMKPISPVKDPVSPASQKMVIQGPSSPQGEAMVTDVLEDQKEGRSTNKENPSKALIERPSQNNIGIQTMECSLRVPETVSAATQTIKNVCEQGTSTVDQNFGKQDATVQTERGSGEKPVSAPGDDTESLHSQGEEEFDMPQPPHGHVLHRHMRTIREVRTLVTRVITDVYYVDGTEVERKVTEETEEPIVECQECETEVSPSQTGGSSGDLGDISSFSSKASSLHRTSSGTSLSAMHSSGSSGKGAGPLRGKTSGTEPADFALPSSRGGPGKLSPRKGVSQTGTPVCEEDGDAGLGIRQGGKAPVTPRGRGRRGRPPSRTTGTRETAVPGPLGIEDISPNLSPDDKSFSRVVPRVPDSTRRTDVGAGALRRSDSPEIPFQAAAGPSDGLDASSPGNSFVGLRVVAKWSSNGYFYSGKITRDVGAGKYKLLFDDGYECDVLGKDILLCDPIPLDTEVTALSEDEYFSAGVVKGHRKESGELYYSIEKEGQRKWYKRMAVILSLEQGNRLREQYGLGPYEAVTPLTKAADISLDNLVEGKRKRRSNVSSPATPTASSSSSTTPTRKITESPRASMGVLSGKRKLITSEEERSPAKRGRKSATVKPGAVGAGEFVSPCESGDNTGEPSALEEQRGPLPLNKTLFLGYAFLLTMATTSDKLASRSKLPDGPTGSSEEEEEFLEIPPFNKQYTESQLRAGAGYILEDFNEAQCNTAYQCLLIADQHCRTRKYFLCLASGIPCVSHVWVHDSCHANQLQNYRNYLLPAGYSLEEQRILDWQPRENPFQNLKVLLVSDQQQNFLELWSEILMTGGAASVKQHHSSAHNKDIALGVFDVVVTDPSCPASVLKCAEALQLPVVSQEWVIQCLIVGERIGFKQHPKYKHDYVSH

As to 53BP1 (from UniProt Q12888), the Kd was 1 µM.

Broadly, the Kd is the free concentration of one partner at which half of the binding sites on the other are occupied at equilibrium, for simple one-to-one binding.
